According to publication doi:10.1101/720318 (bioRxiv, 2019):

Target: BKV serotype 1 VP1 (30-297) pentamer (BK polyomavirus)
Experiment: AlphaScreen or HTRF

Binder	binding result
APQWMLPALLGLY [D1min L297A]	binds
APQWMLPLALGLY [D1min L298A]	binds
APQAMLPLLLGLY (N-terminal acetyl, C-terminal amide (Ac-APQAMLPLLLGLY-NH2, printed for the NMR samples)) [D1min W293A]	binds
